{"source": "patent US20240075093A1", "about": "(VIRGINIA TECH INTELLECTUAL PROPERTIES, published 2024)", "molecular_target": "p110β (isolated PI3K protein subunit, cell-free kinase ELISA) (UniProt P42338 1-1070, limits assumed)", "sequence (P42338 whole entry)": "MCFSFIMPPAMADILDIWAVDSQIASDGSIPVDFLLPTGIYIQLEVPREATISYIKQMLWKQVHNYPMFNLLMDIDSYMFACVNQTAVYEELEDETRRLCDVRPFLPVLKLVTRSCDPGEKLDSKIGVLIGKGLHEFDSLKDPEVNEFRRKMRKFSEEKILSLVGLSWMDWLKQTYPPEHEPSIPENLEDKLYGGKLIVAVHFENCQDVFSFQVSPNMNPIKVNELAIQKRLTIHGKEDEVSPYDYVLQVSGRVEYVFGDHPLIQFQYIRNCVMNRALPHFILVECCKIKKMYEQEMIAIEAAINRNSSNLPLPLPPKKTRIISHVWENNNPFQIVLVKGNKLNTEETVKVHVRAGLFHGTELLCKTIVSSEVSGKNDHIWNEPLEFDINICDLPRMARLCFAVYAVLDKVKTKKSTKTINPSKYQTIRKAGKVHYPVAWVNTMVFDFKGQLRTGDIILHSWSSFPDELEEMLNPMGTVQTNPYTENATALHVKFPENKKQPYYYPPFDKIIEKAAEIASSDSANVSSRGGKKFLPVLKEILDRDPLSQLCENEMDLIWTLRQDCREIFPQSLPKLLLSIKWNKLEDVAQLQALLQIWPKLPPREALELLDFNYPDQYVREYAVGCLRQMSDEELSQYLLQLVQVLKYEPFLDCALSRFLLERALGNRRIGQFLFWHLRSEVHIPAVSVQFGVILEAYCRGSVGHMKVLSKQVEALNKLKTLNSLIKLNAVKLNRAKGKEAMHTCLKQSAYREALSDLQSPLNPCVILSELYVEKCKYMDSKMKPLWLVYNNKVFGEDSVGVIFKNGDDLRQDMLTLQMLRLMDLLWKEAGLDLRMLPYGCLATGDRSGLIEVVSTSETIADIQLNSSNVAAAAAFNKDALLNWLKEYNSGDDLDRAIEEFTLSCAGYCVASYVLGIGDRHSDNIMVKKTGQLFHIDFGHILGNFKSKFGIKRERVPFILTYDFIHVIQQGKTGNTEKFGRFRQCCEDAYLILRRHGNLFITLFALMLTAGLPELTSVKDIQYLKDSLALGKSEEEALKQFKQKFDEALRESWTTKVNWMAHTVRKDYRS", "experiment": "cell-based or functional assay"}
{"binder": "RQPKIWFPNRRKPWKKTKKSTKTINPSKYQTIRK", "note": "[Ante-Selectide-18]", "values": [{"measurement": "activity of the p110b catalytic subunit, measured via ELISA; Half Maximal Inhibitory Concentration (IC50)", "value": 105, "unit": "nM"}]}
